Measurements as given in patent US20220048967A1 (published 2022).
Numbered stars: 1 amine (or outer) side, 2 acyl side, 3 side chain; on linkers, the order of the positions; unused ones are H or OH. Square brackets hold non-standard residues; d marks the D form. Side chains are listed from the residue outwards. Ends that are not written are not given here. * marks the point of attachment. C18 diacid = O=C(O)CCCCCCCCCCCCCCCCC(=O)*; γGlu = O=C(O)[C@H](CCC(=O)[*:2])N[*:1]; AEEA = NCCOCCOCC(=O)O; Aib = CC(C)(N)C(=O)O

T1: human gastric inhibitory peptide receptor (GIPR) (human, UniProt P48546 22-466)
T1 sequence (looked up): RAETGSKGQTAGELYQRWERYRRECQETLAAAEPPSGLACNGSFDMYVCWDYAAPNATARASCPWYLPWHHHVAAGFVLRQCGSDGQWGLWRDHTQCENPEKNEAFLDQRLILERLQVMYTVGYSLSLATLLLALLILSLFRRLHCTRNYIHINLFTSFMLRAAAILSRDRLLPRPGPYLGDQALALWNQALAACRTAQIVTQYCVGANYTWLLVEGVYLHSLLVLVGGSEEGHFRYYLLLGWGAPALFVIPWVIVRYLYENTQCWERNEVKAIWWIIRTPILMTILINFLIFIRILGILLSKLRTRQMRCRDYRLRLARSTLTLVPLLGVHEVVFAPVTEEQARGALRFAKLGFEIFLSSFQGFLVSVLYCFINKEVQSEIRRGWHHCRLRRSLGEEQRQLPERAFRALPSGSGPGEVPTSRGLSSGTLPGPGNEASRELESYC


Legend:
[1] = target: T1, human gastric inhibitory peptide …; assay: cell-based or functional assay
[2] = target: human GLP-1 receptor (GLP-1R) (human, UniProt P43220 24-463); assay: cell-based or functional assay

Binder | hGIPR cAMP Rel EC50 [1] [nM] | hGLP1R cAMP Rel EC50 [2] [nM] | hGIPR cAMP EC50 ratio [1] | hGLP1R cAMP EC50 ratio [2]
YXEGTFTSDYSILLDKKAQXAFIEYLIEGGPSSGAPPPS (Aib2, (2-[2-(2-Amino-ethoxy)-ethoxy]-acetyl)2-(γ-Glu)-CO-(CH2)16-CO2H on K17, Aib20, C-terminal NH2) [Example 315] | 0.0408 | 0.0651 |  | 
Y[Aib]EGTFTSDYSILLDKK([AEEA-AEEA-γGlu-C18 diacid])AQ[Aib]AFVEYLIEGGPSSG-NH2 (N-terminus assumed; SMILES CC[C@H](C)[C@H](NC(=O)[C@H](CC(C)C)NC(=O)[C@H](Cc1ccc(O)cc1)NC(=O)[C@H](CCC(=O)O)NC(=O)[C@@H](NC(=O)[C@H](Cc1ccccc1)NC(=O)[C@H](C)NC(=O)C(C)(C)NC(=O)[C@H](CCC(N)=O)NC(=O)[C@H](C)NC(=O)[C@H](CCCCNC(=O)COCCOCCNC(=O)COCCOCCNC(=O)CC[C@H](NC(=O)CCCCCCCCCCCCCCCCC(=O)O)C(=O)O)NC(=O)[C@H](CCCCN)NC(=O)[C@H](CC(=O)O)NC(=O)[C@H](CC(C)C)NC(=O)[C@H](CC(C)C)NC(=O)[C@@H](NC(=O)[C@H](CO)NC(=O)[C@H](Cc1ccc(O)cc1)NC(=O)[C@H](CC(=O)O)NC(=O)[C@H](CO)NC(=O)[C@@H](NC(=O)[C@H](Cc1ccccc1)NC(=O)[C@@H](NC(=O)CNC(=O)[C@H](CCC(=O)O)NC(=O)C(C)(C)NC(=O)[C@@H](N)Cc1ccc(O)cc1)[C@@H](C)O)[C@@H](C)O)[C@@H](C)CC)C(C)C)C(=O)N[C@@H](CCC(=O)O)C(=O)NCC(=O)NCC(=O)N1CCC[C@H]1C(=O)N[C@@H](CO)C(=O)N[C@@H](CO)C(=O)NCC(N)=O) [Example 298] | 0.043 | 0.0957 | 2.87 | 0.507
Y[Aib]EGTFTSDYSILLDKK([AEEA-AEEA-γGlu-C18 diacid])AQ[Aib]AFIEYLIAGGPSSGAPPPS-NH2 (N-terminus assumed; SMILES CC[C@H](C)[C@H](NC(=O)[C@H](CC(C)C)NC(=O)[C@H](Cc1ccc(O)cc1)NC(=O)[C@H](CCC(=O)O)NC(=O)[C@@H](NC(=O)[C@H](Cc1ccccc1)NC(=O)[C@H](C)NC(=O)C(C)(C)NC(=O)[C@H](CCC(N)=O)NC(=O)[C@H](C)NC(=O)[C@H](CCCCNC(=O)COCCOCCNC(=O)COCCOCCNC(=O)CC[C@H](NC(=O)CCCCCCCCCCCCCCCCC(=O)O)C(=O)O)NC(=O)[C@H](CCCCN)NC(=O)[C@H](CC(=O)O)NC(=O)[C@H](CC(C)C)NC(=O)[C@H](CC(C)C)NC(=O)[C@@H](NC(=O)[C@H](CO)NC(=O)[C@H](Cc1ccc(O)cc1)NC(=O)[C@H](CC(=O)O)NC(=O)[C@H](CO)NC(=O)[C@@H](NC(=O)[C@H](Cc1ccccc1)NC(=O)[C@@H](NC(=O)CNC(=O)[C@H](CCC(=O)O)NC(=O)C(C)(C)NC(=O)[C@@H](N)Cc1ccc(O)cc1)[C@@H](C)O)[C@@H](C)O)[C@@H](C)CC)[C@@H](C)CC)C(=O)N[C@@H](C)C(=O)NCC(=O)NCC(=O)N1CCC[C@H]1C(=O)N[C@@H](CO)C(=O)N[C@@H](CO)C(=O)NCC(=O)N[C@@H](C)C(=O)N1CCC[C@H]1C(=O)N1CCC[C@H]1C(=O)N1CCC[C@H]1C(=O)N[C@@H](CO)C(N)=O) [Example 316] | 0.024 | 0.122 | 3.75 | 0.644
Y[Aib]EGTFTSDYSILLDKK([AEEA-AEEA-γGlu-C18 diacid])AQ[Aib]AFLEYLIEGGPSSG-NH2 (N-terminus assumed; SMILES CC[C@H](C)[C@H](NC(=O)[C@H](CC(C)C)NC(=O)[C@H](Cc1ccc(O)cc1)NC(=O)[C@H](CCC(=O)O)NC(=O)[C@H](CC(C)C)NC(=O)[C@H](Cc1ccccc1)NC(=O)[C@H](C)NC(=O)C(C)(C)NC(=O)[C@H](CCC(N)=O)NC(=O)[C@H](C)NC(=O)[C@H](CCCCNC(=O)COCCOCCNC(=O)COCCOCCNC(=O)CC[C@H](NC(=O)CCCCCCCCCCCCCCCCC(=O)O)C(=O)O)NC(=O)[C@H](CCCCN)NC(=O)[C@H](CC(=O)O)NC(=O)[C@H](CC(C)C)NC(=O)[C@H](CC(C)C)NC(=O)[C@@H](NC(=O)[C@H](CO)NC(=O)[C@H](Cc1ccc(O)cc1)NC(=O)[C@H](CC(=O)O)NC(=O)[C@H](CO)NC(=O)[C@@H](NC(=O)[C@H](Cc1ccccc1)NC(=O)[C@@H](NC(=O)CNC(=O)[C@H](CCC(=O)O)NC(=O)C(C)(C)NC(=O)[C@@H](N)Cc1ccc(O)cc1)[C@@H](C)O)[C@@H](C)O)[C@@H](C)CC)C(=O)N[C@@H](CCC(=O)O)C(=O)NCC(=O)NCC(=O)N1CCC[C@H]1C(=O)N[C@@H](CO)C(=O)N[C@@H](CO)C(=O)NCC(N)=O) [Example 299] | 0.932 | 2.54 | 0.146 | 0.0244
YXEGTFTSDYSIXLDKKAQXAFIEYLIEGGPSSG (Aib2, αMeL13, (2-[2-(2-Amino-ethoxy)-ethoxy]-acetyl)2-(γ-Glu)-CO-(CH2)16-CO2H on K17, Aib20, C-terminal NH2) [Example 300] | 0.0234 | 0.0867 | 5.38 | 0.636
YXEGTXTSDYSILLDKKAQXEFIEYLIAGGPSSG (Aib2, αMeF6, (2-[2-(2-Amino-ethoxy)-ethoxy]-acetyl)2-(γ-Glu)-CO-(CH2)16-CO2H on K17, Aib20, C-terminal NH2) [Example 310] | 0.0176 | 0.0283 | 5.56 | 1.43
YXEGTXTSDYSILLDKKAQXEFIEYLIEGGPSSG (Aib2, αMeF6, (2-[2-(2-Amino-ethoxy)-ethoxy]-acetyl)2-(γ-Glu)-CO-(CH2)16-CO2H on K17, Aib20, C-terminal NH2) [Example 308] | 0.0262 | 0.0392 | 4.06 | 1.45
YXEGTFTSDYSIXLDKKAQXEFIEYLIEGGPSSG (Aib2, αMeL13, (2-[2-(2-Amino-ethoxy)-ethoxy]-acetyl)2-(γ-Glu)-CO-(CH2)16-CO2H on K17, Aib20, C-terminal NH2) [Example 304] | 0.0296 | 0.191 | 2.68 | 0.481
YXEGTXTSDYSILLDEKAQXAFIEYLIEGGPSSG (Aib2, αMeF(2F)6, (2-[2-(2-Amino-ethoxy)-ethoxy]-acetyl)2-(γ-Glu)-CO-(CH2)16-CO2H on K17, Aib20, C-terminal NH2) [Example 311] | 0.0334 | 0.0393 | 3.5 | 1.04
YXEGTXTSDYSILLDKKAQXAFIEYLIEGGPSSG (Aib2, αMeF6, (2-[2-(2-Amino-ethoxy)-ethoxy]-acetyl)2-(γ-Glu)-CO-(CH2)16-CO2H on K17, Aib20, C-terminal NH2) [Example 301] | 0.0346 | 0.0441 | 4.11 | 1.61
YXEGTFTSDYSIXLDEKAQXAFIEYLIEGGPSSG (Aib2, αMeL13, (2-[2-(2-Amino-ethoxy)-ethoxy]-acetyl)2-(γ-Glu)-CO-(CH2)16-CO2H on K17, Aib20, C-terminal NH2) [Example 303] | 0.0254 | 0.104 | 4.2 | 0.602
YXEGTXTSDYSILLDKKAQXAFIEYLIAGGPSSG (Aib2, αMeF6, (2-[2-(2-Amino-ethoxy)-ethoxy]-acetyl)2-(γ-Glu)-CO-(CH2)16-CO2H on K17, Aib20, C-terminal NH2) [Example 309] | 0.0389 | 0.033 | 1.64 | 1.27
YXEGTXTSDYSILLDEKAQXAFIEYLIEGGPSSG (Aib2, αMeF6, (2-[2-(2-Amino-ethoxy)-ethoxy]-acetyl)2-(γ-Glu)-CO-(CH2)16-CO2H on K17, Aib20, C-terminal NH2) [Example 307] | 0.0285 | 0.0437 | 2.48 | 1.29
YXEGTXTSDYSILLDKKAQXEFIEYLIAGGPSSG (Aib2, αMeF(2F)6, (2-[2-(2-Amino-ethoxy)-ethoxy]-acetyl)2-(γ-Glu)-CO-(CH2)16-CO2H on K17, Aib20, C-terminal NH2) [Example 314] | 0.029 | 0.029 | 2.81 | 1.48
YXEGTFTSDYSIXLDKKAQXEFIEYLIAGGPSSG (Aib2, αMeL13, (2-[2-(2-Amino-ethoxy)-ethoxy]-acetyl)2-(γ-Glu)-CO-(CH2)16-CO2H on K17, Aib20, C-terminal NH2) [Example 306] | 0.0191 | 0.0711 | 3.97 | 0.912
YXEGTXTSDYSILLDKKAQXEFIEYLIEGGPSSG (Aib2, αMeF(2F)6, (2-[2-(2-Amino-ethoxy)-ethoxy]-acetyl)2-(γ-Glu)-CO-(CH2)16-CO2H on K17, Aib20, C-terminal NH2) [Example 312] | 0.0207 | 0.0262 | 4.76 | 1.53
YXEGTXTSDYSILLDKKAQXAFIEYLIAGGPSSG (Aib2, αMeF(2F)6, (2-[2-(2-Amino-ethoxy)-ethoxy]-acetyl)2-(γ-Glu)-CO-(CH2)16-CO2H on K17, Aib20, C-terminal NH2) [Example 313] | 0.0233 | 0.0388 | 2.87 | 0.867
YXEGTXTSDYSILLDKKAQXAFIEYLIEGGPSSG (Aib2, αMeF(2F)6, (2-[2-(2-Amino-ethoxy)-ethoxy]-acetyl)2-(γ-Glu)-CO-(CH2)16-CO2H on K17, Aib20, C-terminal NH2) [Example 302] | 0.0308 | 0.0275 | 3.78 | 1.96
